# Values quoted from earlier work, collected in publication PMC12071684.
# pKd: −log10 of the molar value.
# Biological target: von Willebrand factor (Homo sapiens) (UniProt P04275)
substance,measurement,value
ADAMTS13 (from UniProt Q76LX8),pKd,7.70
